Results from US20240124586A1 (WUXI BIOLOGICS IRELAND, published 2024).
Numbering of substitutions follows the chain as printed. Numbers in names are those of the source. Where two headings read alike, the source gives them in different places.

T1: FcγRIIa (H167) (UniProt P12318 36-218, limits assumed)
T1 sequence (looked up): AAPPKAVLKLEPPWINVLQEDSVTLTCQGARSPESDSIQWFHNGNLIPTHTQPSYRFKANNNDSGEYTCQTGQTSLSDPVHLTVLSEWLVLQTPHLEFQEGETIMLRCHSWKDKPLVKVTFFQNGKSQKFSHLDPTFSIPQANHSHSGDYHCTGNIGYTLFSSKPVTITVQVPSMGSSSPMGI

T2: FcγRIIa (R167) (UniProt P12318 36-218, limits assumed)
T2 sequence (looked up): T1 sequence (looked up) with H132R

T3: FcγRIIb (UniProt P31994 46-217, limits assumed)
T3 sequence (looked up): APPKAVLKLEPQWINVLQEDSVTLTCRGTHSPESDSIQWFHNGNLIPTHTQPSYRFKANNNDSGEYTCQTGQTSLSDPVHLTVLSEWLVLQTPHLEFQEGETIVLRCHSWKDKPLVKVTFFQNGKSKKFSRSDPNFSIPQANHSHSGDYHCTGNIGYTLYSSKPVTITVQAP

B1: W3248-U6T5.G25-1.uIgG4.SP, bispecific anti-PD-1 x CTLA-4 (bispecific antibody)
heavy: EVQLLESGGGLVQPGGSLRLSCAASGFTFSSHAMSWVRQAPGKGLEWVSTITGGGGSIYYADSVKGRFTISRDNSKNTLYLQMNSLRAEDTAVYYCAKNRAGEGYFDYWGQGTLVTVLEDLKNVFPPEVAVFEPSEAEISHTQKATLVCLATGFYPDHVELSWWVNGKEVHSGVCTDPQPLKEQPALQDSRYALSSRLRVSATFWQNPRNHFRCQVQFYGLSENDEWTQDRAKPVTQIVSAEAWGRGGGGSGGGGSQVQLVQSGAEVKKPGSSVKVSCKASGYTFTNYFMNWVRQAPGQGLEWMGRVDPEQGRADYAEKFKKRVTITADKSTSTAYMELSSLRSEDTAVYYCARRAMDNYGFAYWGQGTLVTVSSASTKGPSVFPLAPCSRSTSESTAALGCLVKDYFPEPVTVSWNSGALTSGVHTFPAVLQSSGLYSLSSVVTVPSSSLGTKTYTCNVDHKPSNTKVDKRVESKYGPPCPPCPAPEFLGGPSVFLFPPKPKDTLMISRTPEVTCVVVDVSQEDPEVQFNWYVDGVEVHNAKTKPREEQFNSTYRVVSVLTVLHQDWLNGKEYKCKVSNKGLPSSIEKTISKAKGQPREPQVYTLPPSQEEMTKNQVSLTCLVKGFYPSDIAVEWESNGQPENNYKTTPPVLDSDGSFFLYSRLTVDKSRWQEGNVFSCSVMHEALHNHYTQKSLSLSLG
light 1: SYELTQPLSVSVALGQTARITCGGDNIGNKDVHWYQQKPGQAPVLVIYRDSNRPSGIPEGFSGSNSGNTATLTISRAQAGDEADYYCQVWDSIWVFGGGTKLTVLPDIQNPDPAVYQLRDSKSSDKSVCLFTDFDSQTQVSQSKDSDVYITDKCVLDMRSMDFKSNSAVAWSQKSDFACANAFQNSIIPEDTFFPSPESS
light 2: EIVLTQSPDFQSVTPKEKVTITCSANSALSYMYWYQQKPDQSPKLWVHGTSNLASGVPSRFSGSGSGTDFTLTINSLEAEDAATYYCHHWSNTQWTFGGGTKVEIKRTVAAPSVFIFPPSDEQLKSGTASVVCLLNNFYPREAKVQWKVDNALQSGNSQESVTEQDSKDSTYSLSSTLTLSKADYEKHKVYACEVTHQGLSSPVTKSFNRGEC
notes: IgG4 (S228P); also called WBP3248-U6T5.G25-1-uIgG4.SP; U6T5.G25.IgG4
B2: W3438-T3U4.E17-1.uIgG4.SP, bispecific anti-CD3 x CD19 (bispecific antibody)
heavy 1: QVQLVQSGAEVKKPGSSVKVSCKASGFAFTDYYIHWVRQAPGQGLEWMGWISPGNVNTKYNENFKGRVTITADKSTSTAYMELSSLRSEDTAVYYCARDGYSLYYFDYWGQGTLVTVLEDLKNVFPPEVAVFEPSEAEISHTQKATLVCLATGFYPDHVELSWWVNGKEVHSGVCTDPQPLKEQPALQDSRYALSSRLRVSATFWQNPRNHFRCQVQFYGLSENDEWTQDRAKPVTQIVSAEAWGRYGPPCPPCPAPEFLGGPSVFLFPPKPKDTLMISRTPEVTCVVVDVSQEDPEVQFNWYVDGVEVHNAKTKPREEQFNSTYRVVSVLTVLHQDWLNGKEYKCKVSNKGLPSSIEKTISKAKGQPREPQVYTLPPCQEEMTKNQVSLWCLVKGFYPSDIAVEWESNGQPENNYKTTPPVLDSDGSFFLYSRLTVDKSRWQEGNVFSCSVMHEALHNHYTQKSLSLSLGK
light 1: DIVMTQSPDSLAVSLGERATINCKSSQSLLNSRTRKNYLAWYQQKPGQPPKLLIYWASTRQSGVPDRFSGSGSGTDFTLTISSLQAEDVAVYYCTQSHTLRTFGGGTKVEIKPDIQNPDPAVYQLRDSKSSDKSVCLFTDFDSQTQVSQSKDSDVYITDKCVLDMRSMDFKSNSAVAWSQKSDFACANAFQNSIIPEDTFFPSPESS
heavy 2: QMQLVQSGPEVKKPGTSVKVSCKASGYAFTSYNMYWVRQARGQRLEWIGYIDPYNGDTTYNQKFKGRVTITRDMSTSTAYMELSSLRSEDTAVYYCLTTAYAMDYWGQGTLVTVSSASTKGPSVFPLAPCSRSTSESTAALGCLVKDYFPEPVTVSWNSGALTSGVHTFPAVLQSSGLYSLSSVVTVPSSSLGTKTYTCNVDHKPSNTKVDKRVESKYGPPCPPCPAPEFLGGPSVFLFPPKPKDTLMISRTPEVTCVVVDVSQEDPEVQFNWYVDGVEVHNAKTKPREEQFNSTYRVVSVLTVLHQDWLNGKEYKCKVSNKGLPSSIEKTISKAKGQPREPQVCTLPPSQEEMTKNQVSLSCAVKGFYPSDIAVEWESNGQPENNYKTTPPVLDSDGSFFLVSRLTVDKSRWQEGNVFSCSVMHEALHNHYTQKSLSLSLGK
light 2: DIQLTQSPSFLSASVGDRVTITCSASSTVNYMHWYQQKPGKAPKLLIYSTSNLASGVPSRFSGSGSGTEFTLTISSLQPEDFATYYCHQWSSYPYTFGQGTKLEIKRTVAAPSVFIFPPSDEQLKSGTASVVCLLNNFYPREAKVQWKVDNALQSGNSQESVTEQDSKDSTYSLSSTLTLSKADYEKHKVYACEVTHQGLSSPVTKSFNRGEC
notes: also called E17-Design_2-QQQQ (IgG4); E17-IgG4; copies: 1 + 1 + 1 + 1

Assays:
[1] = target: T4, human PD-1 ECD mouse Fc fusion (W305-hPro1.ECD.mFc) (human, UniProt Q15116 25-170); experiment: dual binding ELISA, PD-1 ECD.mFc coated, detection with biotinylated CTLA-4 ECD.hFc; second antibody named, second value; PD-1 coated, biotinylated CTLA-4 detection
T4 construct: extracellular domain; In-house protein; also called hPD-1-ECD; human PD-1 coated on the plate
T4 sequence (Q15116 25-170): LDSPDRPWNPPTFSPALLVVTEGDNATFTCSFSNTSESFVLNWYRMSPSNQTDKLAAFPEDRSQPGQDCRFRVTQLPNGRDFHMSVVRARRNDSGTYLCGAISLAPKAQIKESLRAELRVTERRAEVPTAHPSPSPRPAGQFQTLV
Description: In order to test whether the bispecific antibodies could bind to both hPD-1 and hCTLA-4, an ELISA assay was developed as below. A 96-well ELISA plate (Nunc MaxiSorp, ThermoFisher) was coated overnight at 4° C. with 0.5 μg/ml antigen-1 (hPD-1-ECD, W305-hPro1.ECD.mFc) in carbonate-bicarbonate buffer. After a 1 hour blocking step with 2% (w/v) bovine serum albumin (Pierce) dissolved in PBS, serial dilutions of the different PD-1×CTLA-4 bispecific antibodies in PBS containing 2% BSA PBS were incubated on the plates for 1 hour at room temperature. Following the incubation, plates were washed three times with 300 μL per well of PBS containing 0.5% (v/v) Tween 20. […] After washing the plates three times, Streptavidin-HRP (Lifetechnologies, #SNN1004) (1:20000 diluted) was added and incubated on the plates for 1 hour at room temperature. After washing six times with […] per well of PBS containing 0.5% (v/v) Tween 20, 100 μL tetramethylbenzidine (TMB) substrate was added for the detection per well. The reaction was stopped after approximately 5 minutes through the addition of […] per well of 2 M HCl. The absorbance of the wells was measured at 450 nm with a multiwall plate reader (SpectraMax® M5e).

FcγRI = target: T5, FcγRI (UniProt P12314 16-288, limits assumed); experiment: SPR (Biacore), receptor captured on anti-his chip, 1:1 model
T5 construct: His-tagged by the capture method
T5 sequence (P12314 16-288 limits assumed): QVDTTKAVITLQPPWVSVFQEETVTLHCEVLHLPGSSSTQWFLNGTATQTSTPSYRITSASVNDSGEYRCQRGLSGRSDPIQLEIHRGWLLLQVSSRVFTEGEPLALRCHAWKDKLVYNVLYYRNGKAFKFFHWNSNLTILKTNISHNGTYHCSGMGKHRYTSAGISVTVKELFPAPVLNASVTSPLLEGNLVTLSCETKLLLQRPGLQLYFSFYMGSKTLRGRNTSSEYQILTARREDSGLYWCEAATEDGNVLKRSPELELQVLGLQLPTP
Description: (§1) Antibody binding affinity to FcγRs was detected using Biacore T200 (or Biacore 8K). Each receptor was captured on an anti-his antibody immobilized CM5 sensor chip (GE). Antibodies at different concentrations were injected over the sensor chip at a flow rate of 30 uL/min for an association phase of 60 s, followed by 60 s dissociation. The chip was then regenerated by 10 mM glycine (pH 1.5) after each binding cycle.
(§2) The sensorgrams of blank surface and buffer channel were subtracted from the test sensorgrams. The experimental data was fitted by 1:1 model using Langmiur analysis (for FcγRI) or steady state model (for other receptors). A molecular weight of 150 KDa was used to calculate the molar concentration of antibodies.

FcγRIIa (H167) [2] = target: T1, FcγRIIa (H167); experiment: SPR (Biacore), receptor captured on anti-his chip, steady state model
Description: as §1, §2

FcγRIIa (R167) [3] = target: T2, FcγRIIa (R167); experiment: as above
Description: as §1, §2

FcγRIIb [4] = target: T3, FcγRIIb; experiment: as above
Description: as §1, §2

FcγRIIa (H167) [5] = target: T1, FcγRIIa (H167); experiment: as above; remark: listed apart in the source
Description: as §1, §2

FcγRIIa (R167) [6] = target: T2, FcγRIIa (R167); experiment: as above; remark: listed apart in the source
Description: as §1, §2

FcγRIIb [7] = target: T3, FcγRIIb; experiment: as above; remark: listed apart in the source
Description: as §1, §2

FcγRIIIa (F176) = FcγRIIIa (F176) (UniProt P08637 17-208); experiment: as above
Sequence of FcγRIIIa (F176) (P08637 17-208 limits assumed): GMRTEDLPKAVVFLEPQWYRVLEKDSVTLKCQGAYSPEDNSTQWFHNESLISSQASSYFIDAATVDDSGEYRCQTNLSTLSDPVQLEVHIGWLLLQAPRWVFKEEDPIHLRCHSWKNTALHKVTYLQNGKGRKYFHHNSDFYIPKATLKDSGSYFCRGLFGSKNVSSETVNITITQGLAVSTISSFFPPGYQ
Description: as §1, §2

FcγRIIIa (V176) = FcγRIIIa (V176) (UniProt P08637 17-208); experiment: as above
Sequence of FcγRIIIa (V176) (P08637 17-208 F176V limits assumed): as the sequence (P08637 17-208 limits assumed) above, with F160V counted along it
Description: as §1, §2

FcRn = target: T6, FcRn (UniProt P55899 24-297; P61769 21-119, limits assumed); experiment: SPR at pH 6.0, antibody immobilized, FcRn injected, steady state model; pH 6.0
T6 construct: a molecular weight of 45 kDa was used
T6 sequence (P55899 24-297 limits assumed, chain 1 of 2): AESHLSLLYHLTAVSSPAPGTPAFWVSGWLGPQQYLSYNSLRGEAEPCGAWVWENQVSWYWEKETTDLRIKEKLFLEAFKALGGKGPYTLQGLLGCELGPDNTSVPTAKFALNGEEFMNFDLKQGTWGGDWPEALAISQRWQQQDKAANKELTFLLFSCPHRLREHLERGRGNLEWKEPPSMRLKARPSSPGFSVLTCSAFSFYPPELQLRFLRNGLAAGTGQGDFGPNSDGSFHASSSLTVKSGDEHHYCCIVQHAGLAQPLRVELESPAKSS
T6 sequence (P61769 21-119 limits assumed, chain 2 of 2): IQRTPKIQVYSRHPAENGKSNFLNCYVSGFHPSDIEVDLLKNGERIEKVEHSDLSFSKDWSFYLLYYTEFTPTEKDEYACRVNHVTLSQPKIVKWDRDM
Description: Antibody binding affinity to FcRn was detected using Biacore T200 (or Biacore 8K). Each antibody was immobilized on CM5 sensor chip (GE). FcRn at different concentrations in running buffer (50 mM Na2HPO4/NaH2PO4, 150 mM NaCl, 0.05% Tween20, pH 6.0) were injected over the sensor chip at a flow rate of 30 uL/min for an association phase of 60 s, followed by 60 s dissociation. The chip was then regenerated by 1×PBS (pH 7.4) after each binding cycle.

Row | Binder | EC50 [1] [nM] | Kd (FcγRI) [nM] | Kd (FcγRIIa (H167) [2]) [µM] | Kd (FcγRIIa (R167) [3]) [µM] | Kd (FcγRIIb [4]) [µM] | Kd (FcγRIIa (H167) [5]) [µM] | Kd (FcγRIIa (R167) [6]) [µM] | Kd (FcγRIIb [7]) [µM] | Kd (FcγRIIIa (F176)) [µM] | Kd (FcγRIIIa (V176)) [µM] | Kd (FcRn) [nM]
1 | B1 | 0.071 |  |  |  |  |  |  |  |  |  | 
2 | B2 |  | 9.79 | 20.5 | 15.8 | 24.1 | 20.5 | 15.8 | 24.1 | 29.3 | 14 | 2580
